From PMC8401665 come the findings set out here.

Test [1] addresses GluK2-ATD (Cys-light homomeric GluK2 receptor with a cysteine at site 266) (Rattus norvegicus) (UniProt P42260).
The target in test [2] is GluK2-ABD (Cys-light homomeric GluK2 receptor with a cysteine at site 479) (Rattus norvegicus) (UniProt P42260).

Turning to Concanavalin A (natural protein), the smFRET efficiency across the dimer-dimer interface at the ATD (site 266) with 40 uM Con-A and 1 mM glutamate; primary population, against 0.83 reported earlier without Con-A (FRET efficiency) in test [1] is 0.95. For the same substance, the smFRET efficiency between subunits at the ABD dimer interface (site 479) with 40 uM Con-A and 1 mM glutamate, Na+; major peak, shift of the population to higher FRET states against no Con-A (FRET efficiency) in test [2] is 0.94.
